Data on 29 molecules can be found in US20200000897A1 (published 2020).

In this experiment the target is T1, HLA-A*03:01 (human).
T1 construct: MHC class I monomer first loaded with a UV-sensitive peptide that is cleaved by UV irradiation and exchanged for the test peptide; captured on streptavidin plates; also called peptide-receptive MHC molecules
As to the kind of experiment: UV-ligand exchange, anti-b2m ELISA; peptide exchange yield grade (>10% +, >20% ++, >50% +++, >75% ++++). Summed up: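 HLA-A*03:01 complexes were formed by UV-induced exchange of a photocleavable peptide for the test peptide. Exchange yield was measured by ELISA: streptavidin capture of 100-fold diluted monomers, HRP-anti-β2m detection, TMB read at 450 nm, quantified against HLA-A*02:01 monomer standards (15–500 ng/ml) and graded by % yield.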
(ELISA stands for enzyme-linked immunosorbent assay.)
Turning to IMPTFDLTK, the peptide exchange yield was 10 to 20%.

For the molecule TTNARILAR, the peptide exchange yield was in the range of 50 to 75%.

VIYVICRHK: the peptide exchange yield was 50 to 75%.

On to KRIPFRPLAK, for which the peptide exchange yield fell in the range of 20 to 50%.

As to HMDEFKRTQK, the peptide exchange yield lay in the range of 50 to 75%.

RVSGSGGGGAGK came in with a peptide exchange yield of 50 to 75%.

Turning to RTALLWGLKK, the peptide exchange yield was > 75%.

On to KLADSVMAGK, for which the peptide exchange yield was > 75%.

In turn, IMKRQVKCITK returned a peptide exchange yield of 10 to 20%.

Consider RTYTCQVTY, for which the peptide exchange yield was > 75%.

KARDLRTPK came in with a peptide exchange yield of 50 to 75%.

Take GMTLLCEALK: the peptide exchange yield fell in the range of 20 to 50%.

The molecule AVAAVLLSR showed a peptide exchange yield of 50 to 75%.

RVRALGSQY: the peptide exchange yield is > 75%.

Molecule IINESLLFY returned a peptide exchange yield of 50 to 75%.

As to RLASVGLDAK, the peptide exchange yield is > 75%.

For ALCGTQLFY, the peptide exchange yield was > 75%.

On to GTHVWVGLYK, for which the peptide exchange yield is > 75%.

In the case of RLLQHTPSAR, the peptide exchange yield was > 75%.

In turn, VVDDSQLPK came in with a peptide exchange yield of 20 to 50%.

Turning to KTGTFVLYKS, the peptide exchange yield lay within 50 to 75%.

For HLFLPFSYK, the peptide exchange yield was > 75%.

Take CLANYTVNK: the peptide exchange yield is > 75%.

Molecule RAVSVNPGK gave a peptide exchange yield of 10 to 20%.

PLPRPGAVLK returned a peptide exchange yield of 20 to 50%.

For FLGLAFHPK, the peptide exchange yield lay within 20 to 50%.

For the molecule SVEGLSRRLK, the peptide exchange yield lay within 50 to 75%.

Consider VSVAGSILAK, for which the peptide exchange yield is 20 to 50%.

For QLYSPPSPSYR, the peptide exchange yield is > 75%.
